# According to the supplement of paper PMC9170038:
# Test system: MS2 coat protein
# Experiment: apparent KD of MS2 coat protein; designed switch direction (-1 OFF switch, 1 ON switch): -1; higher = weaker reporter binding
# In short: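 Transcription of designed RNA switches on Illumina chips was done by stalled E. coli RNA polymerase. SNAP-549-labelled MS2 coat protein was then titrated in doubling steps from 0.7 or 1.5 nM to 3 µM, with steps of 0.8–1.5 h at the lowest and 10–20 min at the highest concentration. The per-design median over clusters of curve-fitted normalised fluorescence is reported as apparent KD.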
# [1] = input ligand: microRNA oligo, concentration not stated
# [2] = Eterna round: R95, input ligand: microRNA oligo, concentration not stated
# [3] = Eterna round: R95, input ligand: FMN 200 uM
# [4] = Eterna round: R95, input ligand: none
Sequence,apparent KD of MS2 coat protein (input ligand: FMN 200 uM),apparent KD of MS2 coat protein [1],apparent KD of MS2 coat protein (input ligand: none),apparent KD of MS2 coat protein [2],apparent KD of MS2 coat protein [3],apparent KD of MS2 coat protein [4]
"AAGAAGAUAGGAUAUACGAGGAGAGGAGAGAAGAGGUGAGGACAUGAGGAUCACCCAUGUAGAAGGAUCAGGAA [JR_Exclu2_Sub063] (Eterna round: R96, puzzle: Exclusion 2)",169 nM,91 nM,109 nM,–,–,–
"UAUUAGUAAGGAUAUGAGACGUAGGACGCAAGUCCUACGUCUCAGAAGGUACAUGAGGAUCACCCAUGUCUAUU [Mod of Fisker 10 - Jieux - Exclusion 4] (Eterna round: R97, puzzle: Exclusion 4)",21.2 nM,–,22.2 nM,–,–,–
AAAUCACAUGAGGAUCACCCAUGUGAGGAUAUGAUACUAUGUACUUCGGUACAUAGUAUCAGAAGGCAUAUGGA [Ex1-3: 32] (puzzle: Exclusion 1),–,–,–,22.9 nM,–,–
UACGGGUCAGGAUAUGCGAGGGAGUGGGAAAUAGGAAGGUAGCAGAAGGGACAUGAGGAUCACCCAUGUAAGGA [JR_Exclu4_Sub0100] (puzzle: Exclusion 4),–,–,–,31.2 nM,38.5 nM,34.6 nM
"CAGCUGAAAGUGAGGAUAUCGACUGCUUCGGCAGUCGAGAAGGCACAUGAGGAUCACCCAUGUCUCAACAGCUG [BmEx4/1-A4] (Eterna round: R97, puzzle: Brourd's mod of Exclusion 4)",70.3 nM,–,20.7 nM,–,–,–
"CUCUCACAUGAGGAUCACCCAUGUCAGGAUAUCUCAGUGCAUCCACACGGACGCAUCAAGAGAAGGGACAAAAC [Vinxlusion 2 - Jieux - Exclusion 1] (Eterna round: R97, puzzle: Exclusion 1)",95 nM,–,59.1 nM,–,–,–
"UAUUAGCAAGUAAGAUCCCACAUGAGGAUCACCCAUGUGCUCGUCUUAUAAGGUACUGUGACGAUAGUCACGGUACC [Mat - Sensor, turn-off var - Eli Mod - D44] (Eterna round: R97, puzzle: Sensor, turn-off variant 1)",18.3 nM,–,17.8 nM,–,–,–
"AGUACUAACCCGAAAGUGUUAGUACAAUAAGCUUGUGAAACAUGAGGAUCACCCAUGUCCUCAUAAGCUCGUCUUAU [salish99_TOv2_r3_024] (puzzle: Sensor v3, turn-off variant 2)",–,–,–,766 nM,16.7 nM,15.3 nM
"ACAAGAGCGGAAGGAUAUUGUACAUGAGGAUCACCCAUGUAAUAAAUGAGGAUCACGGAUGUAGUCAAGAAGGUCCGGAUAAGA [Ostracism 1 - Jieux - Exclusion NG 2] (Eterna round: R96, puzzle: Exclusion NG 2)",47.7 nM,60.8 nM,50.6 nM,–,–,–
"CGUCCACUUGAGGAUCACCCAAGUUAGGAUAUCUCCCAGCUCGCAUGUGCGGUUGGUCAGAGAAGGAACCAGGG [Ravereed] (Eterna round: R97, puzzle: Exclusion 1)",49.5 nM,–,29 nM,–,–,–
"AGUACGAUGCGUGCUGACAUGCGUCGUGCAGCAGGUGAUACAUGAGGAUCACCCAUGUCCUCAUUUGCUCGUCUUGU [Mat - Sensor v3 - Turn-off var 2 - D18] (puzzle: Sensor v3, turn-off variant 2)",–,–,–,257 nM,37.2 nM,36.1 nM
"GGAAUACCCUCGAGUUAUCACAUGAGGAUCACCCAUGUCCCAAGCCUUUUGCUCUGAGCUGCGUAUACGCAGAUGUA [Eternabot (Original) Solution 23] (Eterna round: R97, puzzle: Sensor, turn-off variant 1)",112 nM,–,128 nM,–,–,–
"GCAGCAUAUGUAGGAUAUCUGCACGUUUAGUGCAGAGAAGGACAUGAGGAUCACCCAUGUAAUUAAGAUCAAUUAUUAAGCUGC [ENG1/4-A2] (Eterna round: R96, puzzle: Exclusion NG 1)",42.5 nM,17.2 nM,26.2 nM,–,–,–
"AGUACUAACACGUGUGUGUUAGUACAAUAAGCUUGUGAAACAUGAGGAUCACCCAUGUCCUCAUAAGCUCGUCUUAU [salish99_TOv2_r3_074] (Eterna round: R96, puzzle: Sensor v3, turn-off variant 2)",14.9 nM,514 nM,17.1 nM,–,–,–
"UACAUGAGGAUCACCCAUGUUUUGUCGUGUAUGGUAUUUAUCUAGGAUAUCAAGUUAGUUAUUUAUGAGAAGGAGAAUAUUAAU [JMF's solution 29] (Eterna round: R96, puzzle: Exclusion NG 3)",42.5 nM,30.7 nM,39.4 nM,–,–,–
UUUUAACAUGAGGAUCACCCAUGUGAGGAUAUCGAUUUUUAUAUUAAUAUUAAUAAAACGAGAAGGCACAUUUU [JMF 11] (puzzle: Exclusion 1),–,–,–,123 nM,–,–
"ACACUGCGAGGAUAUACAUGAGGAUCACCCAUGUGUCGGCAGCCACGGUAGCACUAGUGUAGAAGGCGCAUUAG [EX3 #42] (Eterna round: R97, puzzle: Exclusion 3)",41.1 nM,–,28.3 nM,–,–,–
"CUAAGUCGAGGAUAUGCAUGGUGACAUGAUGCCGAUGCACGACAUGAGGAUCACCCAUGUAGAAGGCGACUUAG [Eternabot (L2) Solution 50] (Eterna round: R97, puzzle: Exclusion 2)",8.04 nM,–,835 nM,–,–,–
"AUAAUUAAUGCAGGAUAUCAGCACGAUUAGUGCUGAGAAGGGCACAUGAGGAUCACCCAUGUGAUCAAUUAAUAUUAAUAUUAU [ENG1/11-D1] (Eterna round: R96, puzzle: Exclusion NG 1)",279 nM,53 nM,61.6 nM,–,–,–
"ACAGCUAAUCUGCUCGUCUACAUGAGGAUCACCCAUGUCAUGGUCCACCUAAGAGUCAGUUACCCAAGUGAUAUUCG [Eternabot (L1) Solution 29] (Eterna round: R97, puzzle: Sensor, turn-off variant 1)",204 nM,–,224 nM,–,–,–
"CCUCUACAUGAGGAUCACCCAUGUGAGGAUAUAAGAUUGCGAAUUCCGCACUACGGUCUUAGAAGGCGCGUGGA [Riarve] (Eterna round: R96, puzzle: Exclusion 1)",31.3 nM,14.8 nM,20.3 nM,–,–,–
"AUUCAACAUGAGGAUCACCCAUGUGAGGAUAUGCGAGUGUAGACUUCGGUUUGAUAGAGCAGAAGGCGCAGGUA [EX1 #12] (Eterna round: R97, puzzle: Exclusion 1)",35.9 nM,–,33.3 nM,–,–,–
AAAAGAGGAGGAUAUGCAAACAAUGUAAAAGUGAAAGUAAAACAUGAGGAUCACCCAUGUAGAAGGCCUGAAAA [nah] (puzzle: Exclusion 2),–,–,–,20.4 nM,20 nM,20.2 nM
"AUGUUACAUGAGGAUCACCCAUGUGAGGAUAUGAGUCAGUCACGGUGACGUGGCUGACUCAGAAGGCACAAAGG [JL-ex1-4.38 salish99 mod] (Eterna round: R97, puzzle: Exclusion 1)",754 nM,–,180 nM,–,–,–
"CUCCGACAUGAGGAUCACCCAUGUUAGGAUAUCCCACGCAGGUAGUGAGAGAAUCUGUGGAGAAGGAGCAGGGU [Eternabot (L2) Solution 74] (Eterna round: R97, puzzle: Exclusion 1)",21.9 nM,–,24.5 nM,–,–,–
"UACAUGAGGAUCACCCAUGUUUUGUCGUGUAUGGUAUUUAUCUAGGAUAUCAUAUUAUUUAUUUAUGAGAAGGAGAAUAUUAAU [JMF's solution 95] (Eterna round: R96, puzzle: Exclusion NG 3)",45.8 nM,27.1 nM,26.9 nM,–,–,–
"ACUAAGGUAGGAUAUACGUGCGUGAUCGUGCCUUAGCUGGCACAUGAGGAUCACCCAUGUAGAAGGGCCAGACA [Esraleon] (Eterna round: R97, puzzle: Exclusion 2)",17.4 nM,–,19.8 nM,–,–,–
"UGUUGUUCAGGAUAUGAUGUAUAAUACAUGAGGAUCACCCAUGUAGAUCCUGAAUUAACAUCAGAAGGGAAUAUUU [JL-ex5-4.59 Brourd mod] (Eterna round: R97, puzzle: Exclusion 5)",19.8 nM,–,17.2 nM,–,–,–
"UAGUUAUUCACAGGAUAUCGCCUCUUAUUACAUGAGGAUCACCCAUGUUUAGUUAGUUACAUGUUCGAGAAGGGUGUAGUUGUU [JR_ExcNG2_Sub043] (Eterna round: R96, puzzle: Exclusion NG 2)",–,290 nM,–,–,–,–
"AGUCAAGAUGAGGAUAUCCGUGUAACAAACGCAGGAGAAGGCGUCACAUGAGGAUCACCCAUGUUGCCUCUAAG [Eternabot (L1) Solution 92] (Eterna round: R97, puzzle: Exclusion 6)",45.9 nM,–,58.1 nM,–,–,–
